# Assay results reported in PMC11831459, “Lactylation of Histone H3k18 and Egr1 Promotes Endothelial Glycocalyx Degradation in Sepsis‐Induced Acute Lung Injury” (Advanced Science, 2024).
# Biological target: T1, His-EGR1 (mouse, UniProt P08046 1-533)
# T1 construct: Early growth response protein 1 (EGR1), mouse; plasmid pET28a-EGR1; also called His-tagged EGR1; source: E. coli BL21(DE3), purified (Ni-NTA)
# Assay: pull-down; GST pull-down with affinity purified proteins; GST bait on GSH magnetic beads (BersinBio GST-pull down kit), His-EGR1 as prey; SDS-PAGE or Western blot
# Conditions: both partners purified
# T1 sequence (P08046 whole entry): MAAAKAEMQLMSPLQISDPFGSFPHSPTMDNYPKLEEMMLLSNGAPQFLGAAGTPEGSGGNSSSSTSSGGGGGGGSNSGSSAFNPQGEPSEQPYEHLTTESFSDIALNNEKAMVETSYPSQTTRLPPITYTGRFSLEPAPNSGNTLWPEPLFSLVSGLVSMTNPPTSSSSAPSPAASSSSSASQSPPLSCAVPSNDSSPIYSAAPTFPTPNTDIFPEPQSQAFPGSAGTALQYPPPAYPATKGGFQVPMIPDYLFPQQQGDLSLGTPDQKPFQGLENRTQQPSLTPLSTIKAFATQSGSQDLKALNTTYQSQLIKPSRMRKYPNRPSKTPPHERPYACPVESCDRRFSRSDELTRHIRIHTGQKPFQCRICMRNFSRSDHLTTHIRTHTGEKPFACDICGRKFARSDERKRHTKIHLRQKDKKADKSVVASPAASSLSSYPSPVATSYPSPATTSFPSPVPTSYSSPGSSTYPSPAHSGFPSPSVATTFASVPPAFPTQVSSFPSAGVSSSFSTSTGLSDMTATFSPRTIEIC
binder,measurement,value
"GST-KAT2B-WT (enzyme, mouse, UniProt Q9JHD1 1-813, looked up, Histone acetyltransferase KAT2B, mouse; plasmid pGEX-4T-1-KAT2B; source: E. coli BL21(DE3), purified (glutathione column)) MAEAGGAGSPALPPAPPHGSPRTLATAAGSSASCGPATAVAAAGTAEGPGGGGSARIAVKKAQLRSAPRAKKLEKLGVYSACKAEESCKCNGWKNPNPSPTPPRGDLQQIIVSLTESCRSCSHALAAHVSHLENVSEEEMDRLLGIVLDVEYLFTCVHKEEDADTKQVYFYLFKLLRKSILQRGKPVVEGSLEKKPPFEKPSIEQGVNNFVQYKFSHLPSKERQTTIELAKMFLNRINYWHLEAPSQRRLRSPNDDISGYKENYTRWLCYCNVPQFCDSLPRYETTKVFGRTLLRSVFTIMRRQLLEQARQEKDKLPLEKRTLILTHFPKFLSMLEEEVYSQNSPIWDQDFLSASSRTSPLGIQTVISPPVTGTALFSSNSTSHEQINGGRTSPGCRGSSGLEANPGEKRKMNNSHAPEEAKRSRVMGDIPVELINEVMSTITDPAGMLGPETNFLSAHSARDEAARLEERRGVIEFHVVGNSLNQKPNKKILMWLVGLQNVFSHQLPRMPKEYITRLVFDPKHKTLALIKDGRVIGGICFRMFPSQGFTEIVFCAVTSNEQVKGYGTHLMNHLKEYHIKHEILNFLTYADEYAIGYFKKQGFSKEIKIPKTKYVGYIKDYEGATLMGCELNPQIPYTEFSVIIKKQKEIIKKLIERKQAQIRKVYPGLSCFKDGVRQIPIESIPGIRETGWKPSGKEKSKEPKDPEQLYSTLKNILQQVKNHPNAWPFMEPVKRTEAPGYYEVIRFPMDLKTMSERLRNRYYVSKKLFMADLQRVFTNCKEYNPPESEYYKCASILEKFFFSKIKEAGLIDK",binding result,binds
